Test results published in PMC12207370, “Macrocyclic Peptide Probes for Immunomodulatory Protein CD59: Potent Modulators of Bacterial Toxin Activity and Antibody‐Dependent Cytotoxicity” (Angewandte Chemie (International Ed. in English), 2025).

Molecular target: T1, biotinylated CD59 (Homo sapiens, UniProt P13987)
T1 construct: Recombinant soluble human CD59 with an additional C-terminal cysteine residue
T1 sequence (P13987 26-102 limits assumed): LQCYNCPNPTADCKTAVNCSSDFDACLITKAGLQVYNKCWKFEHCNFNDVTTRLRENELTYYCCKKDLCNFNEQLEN
Test: mRNA-display cyclic peptide screen against CD59-biotin, NGS abundance after 6th selection round
Settings: for Counts (raw counts for peptide sequence), Seq I: NGS sample Seq I; for Counts (raw counts for peptide sequence), Seq I / Counts (raw counts for peptide sequence), Seq II / Counts Seq I / Counts Seq II: sheet R6 (6th selection round); for Counts (raw counts for peptide sequence), Seq II: NGS sample Seq II; for Percentage of the pool, averaged across the two sequencing samples: average of Seq I and Seq II; for Percentage of the pool, averaged across the two sequencing samples / Percentage of the pool, Seq I / Percentage of the pool, Seq II / Percentage Seq I / Percentage Seq II / Percentage Average: sheet R6; for Percentage of the pool, Seq I: counts normalised by total counts of NGS sample Seq I; for Percentage of the pool, Seq II: counts normalised by total counts of NGS sample Seq II; for Percentage Seq I: counts normalised by total counts of sample Seq I; for Percentage Seq I / Percentage Seq II: percentage of the pool; for Percentage Seq II: counts normalised by total counts of sample Seq II; for Percentage Average: percentage of the pool averaged across the two sequencing samples; for Counts Seq I / Counts Seq II: raw NGS counts of peptide sequence; for Counts Seq I: sequencing sample Seq I; for Counts Seq II: sequencing sample Seq II
Excerpt: To discover novel non‐protein CD59 ligands, we screened a library of 10^12 cyclic peptides against CD59 using mRNA‐display (Figure 2a).^[ [23], [24], [25], [26], [27], [28], [29] ^] Briefly, an mRNA library was designed in which the start codon was reprogrammed from Met to N‐chloroacetyl‐D‐Tyr (ClAc‐D‐Tyr), followed by 10–12 randomly encoded natural amino acids, a Cys residue, a (GlySer)3 linker, and a stop codon. […] The total library diversity was 1.51 × 10^13 molecules, comprising 5.02 × 10^12 molecules of each macrocycle size, covering a subset of the maximum theoretical diversity of this library design. Following in vitro translation, ClAc‐D‐Tyr spontaneously reacts with either the C‐terminal Cys or a Cys in the random region, yielding macrocyclic thioether peptides. Hits from the library were identified through iterative enrichment and amplification against biotinylated CD59, then immobilized on streptavidin beads. Fifteen hit sequences (CP‐01 to CP‐15), enriched with abundance >1% relative to the total pool of recovered binders after the 6th round of selection, were synthesized by solid phase peptide synthesis (SPPS), without the (Gly‐Ser)3 linker.
Figure 2 Discovery of macrocyclic peptide ligands with nanomolar CD59 affinity using mRNA display. a) The selection process. PCR = polymerase chain reaction, SPPS = solid phase peptide synthesis. b) Table showing details of the peptides with nanomolar affinity for CD59 as well as the binding affinity of the lead inhibitor of CD59, rILYd4. K D values are presented as the average of three technical replicates ± SEM. Structures of all peptides and SPR sensograms are presented in Figures S1 and S2. *indicates the presented sequences are the variable regions of these cyclic peptides; each is flanked by an N‐terminal Ac‐D‐Tyr cyclized to a C‐terminal Cys. R6 abundance (%) is defined as (the given number of NGS reads for a given sequence/the total number of reads of unique sequences observed in NGS)*100 following the 6th selection round. c) Representative sensogram of the interaction between CP‐06 with immobilized CD59 by SPR analysis. Inset showing the equilibrium binding curve of CP‐06 to CD‐59. Below in the box are the association and dissociation rate constants of CP‐06. Concentrations are plotted in descending order from 800‐3.1 nM in line with their position on the legend. […] (nM)'; the box with Kon/Koff has no label of its own / ILYd4: the label may be cut off at the left edge (possibly 'rILYd4') / CP-02, KD: 15.3 ± 0.2, small print, 3 or 8 uncertain / CP-03, KD: 23.4 ± 0.7, small print / CP-06, KD: 11.3 ± 0.0, small print, 3 or 8 uncertain / CP-13, KD: 10.8 ± 0.7, small print, 8 or 6 uncertain / ILYd4, KD: 48.3 ± 1.1, small print, 8 and 3 uncertain
The mRNA-display cyclic peptide screen was performed against CD59-biotin by T.E.M: DNA templates for transcription were generated by PCR in a similar manner to that previously described.^2 RNA oligonucleotides were transcribed from the DNA templates using T7 RNA polymerase and purified by phenol/chloroform extraction followed by ethanol precipitation. Oligonucleotide concentrations were determined spectroscopically by absorbance at 260 nm. In the first selection round a 1:1:1 molar ratio of NNK10/NNK11/NNK12 was used. The procedure for selection rounds 2-6 is described below; round 1 was conducted at twice the scale.
RNA encoding for the peptide library ligated to a puromycin-modified oligonucleotide was […] (final [RNA] = 2.5 µM) using a customised PURE express kit (lacking release factor 1 and methionine, supplemented with […] initiator tRNA acylated with N-chloroacetyl-d-tyrosine prepared as previously described)^3 in a final volume of 5.6 µL for 1 hour at 37 °C.
This mixture was incubated at 42 °C for 1 hour before being diluted to 500 µL with PBS (10 mM Na-PO4 pH 7.4, 2.7 mM KCl, 137 mM NaCl) and 0.5 µL taken for subsequent use in qPCR. […]

Row | Sequence | Counts (raw counts for peptide sequence), Seq I | Counts (raw counts for peptide sequence), Seq II | Percentage of the pool, averaged across the two sequencing samples | Percentage of the pool, Seq I | Percentage of the pool, Seq II | Percentage Seq I | Percentage Seq II | Percentage Average | Counts Seq I | Counts Seq II
1 | FVRGDLYSVLS | 43 | 4 | 0.010% | 0.010% | 0.009% | – | – | – | – | –
2 | WRDRFGQCVL | 27 | 7 | 0.011% | 0.006% | 0.016% | – | – | – | – | –
3 | SWTRGNRSSVRG | 44 | 5 | 0.011% | 0.010% | 0.012% | – | – | – | – | –
4 | CFASRLTIDAV | – | – | – | – | – | 0.032% | 0.028% | 0.030% | 140 | 12
5 | NTAWGNVAVAYF | – | – | – | – | – | 0.042% | 0.030% | 0.036% | 183 | 13
6 | IQSGSQSWSRG | – | – | – | – | – | 0.037% | 0.035% | 0.036% | 164 | 15
7 | CYGGRTLIYAWS | – | – | – | – | – | 0.028% | 0.019% | 0.023% | 121 | 8
8 | DYNRIVWGRGNAAAAAAARTGGG | 89 | 6 | 0.017% | 0.020% | 0.014% | – | – | – | – | –
9 | CYGDRTFIYAWS | 53 | 10 | 0.018% | 0.012% | 0.023% | – | – | – | – | –
10 | CFTNRLDNSST | – | – | – | – | – | 0.072% | 0.067% | 0.070% | 314 | 29
11 | FVTGSRDHTRG | – | – | – | – | – | 0.074% | 0.053% | 0.063% | 322 | 23
12 | CFRNRIDLIS | 49 | 5 | 0.011% | 0.011% | 0.012% | – | – | – | – | –
13 | HCWVRGSRNYS | 46 | 5 | 0.011% | 0.011% | 0.012% | – | – | – | – | –
14 | LRGSYDYQLYFG | – | – | – | – | – | 0.013% | 0.023% | 0.018% | 57 | 10
15 | SWTWGDRSSVRG | – | – | – | – | – | 0.016% | 0.023% | 0.020% | 71 | 10
16 | CFLNRASFSGI | 60 | 6 | 0.014% | 0.014% | 0.014% | – | – | – | – | –
17 | LAWGNRQIQYY | 78 | 6 | 0.016% | 0.018% | 0.014% | – | – | – | – | –
18 | CYGGRTFIYVWS | – | – | – | – | – | 0.038% | 0.023% | 0.031% | 168 | 10
19 | FVRGDMYSVLG | 39 | 6 | 0.011% | 0.009% | 0.014% | – | – | – | – | –
20 | DPYCPFFPEFR | 52 | 5 | 0.012% | 0.012% | 0.012% | – | – | – | – | –
21 | HCWVRGSRNHT | 54 | 5 | 0.012% | 0.012% | 0.012% | – | – | – | – | –
22 | ASWLPSPCKFS | 73 | 4 | 0.013% | 0.017% | 0.009% | – | – | – | – | –
23 | CYGGRTFIYEWS | – | – | – | – | – | 0.037% | 0.042% | 0.040% | 164 | 18
24 | LYSHPRSLCSFS | – | – | – | – | – | 0.082% | 0.091% | 0.086% | 357 | 39
